Each block holds one molecule with its values, some of them ahead of it. Where no end group is shown, it is not given here. The star is where a group is joined. Biotin = O=C1N[C@H]2[C@H](CS[C@H]2CCCCC(=O)*)N1; Ahx = NCCCCCC(=O)O
What was measured:
[1] = molecular target: p259-271 presented by antigen-presenting cells of MG patients (HLA class II) (human)
[2] = molecular target: p195-212 presented by antigen-presenting cells of MG patients (HLA class II) (human)
[3] = tested on: peripheral blood lymphocytes (PBL) of myasthenia gravis patients; conditions: 96 h
Procedure: Peripheral blood lymphocytes (PBL) of myasthenia gravis patients and of the appropriate control donors (2×10^5 cells/well) were assayed in microtiter plates in 0.2 ml enriched medium containing 10% autologous serum, in the presence of different doses of the peptides p195-212 and the analog 207Ala for 96 h, followed by an overnight pulse with 0.5 μCi of ^3 H-thymidine. Cells were harvested and radioactivity determined. Inhibition of the proliferative responses was done by adding different doses of 207Ala into the incubation mixture at the same time as the pathogenic peptide p195-212.

[4] = molecular target: MHC class II on human antigen presenting cells
[5] = molecular target: MHC class II of SJL mice (on antigen presenting cells); assay: flow cytometry, biotinylated peptide on SJL antigen presenting cells, PE-streptavidin
[6] = molecular target: MHC class II of SJL mice (on antigen presenting cells)
[7] = molecular target: MHC Class II molecules of BALB/c mice (on syngeneic spleen cells used as antigen-presenting cells)
[8] = molecular target: MHC Class II molecules of BALB/c mice (on syngeneic spleen cells used as antigen-presenting cells); remark: listed apart in the source
[9] = molecular target: MHC Class II molecules of BALB/c mice (on syngeneic spleen cells used as antigen-presenting cells); remark: listed apart in the source

Procedure for T cell line TCSJL195-212: T cell lines and clones specific to p195-212 were established from lymph node cells of high (SJL) responder mouse strain by the method described by Brocke et al. (1990a), supra, and designated TCSJL195-212 line (Mozes, E. et al. (1991), supra; see also Kirshner et al. (1994), supra).
Cells (10^4 per well) of the T cell Line TCSJL195-212 or TCBALB/c259-271 were incubated in the presence of irradiated syngeneic spleen cells (0.5×10^6), either p195-212 or p259-271 (10 μM) and various concentrations of the dual epitope analogs 207Ala-262Lys or 262Lys-207Ala for 48 h. Thereafter, ^3 H-thymidine was added and 16 h later plates we harvested.

Molecule: DTPYLDITYHFVAQRLPL [207Ala]
inhibition of proliferative responses of PBL, all three patients [3]: 77-100%
inhibition of the proliferative response of the TCSJL195-212 line to p195-212 (T cell line TCSJL195-212): more than 99%

Molecule: VIVDLIPSTSSAV [262Asp analog of p259-271]
% inhibition of the p259-271 induced proliferative response of PBL (three MG patients) [4]: 78 % inhibition

Molecule: DTPYLDITYHFVAQRLPL [207Ala analog of p195-212]
inhibition of the p195-212 specific proliferative response of TCSJL195-212 [6]: > 99 % inhibition

Molecule: VIVKLIPSTSSAV [262Lys analog of p259-271]
% inhibition of the p259-271 induced proliferative response of PBL (three MG patients) [4]: 100 % inhibition
inhibition of the proliferative response of lymph node cells of p259-271 immunized BALB/c mice to p259-271 [7]: < 64.7 % inhibition
inhibition of the helper activity of TCBALB/c259-271 (p259-271 specific antibody production) [8]: < 80 % inhibition
% of inhibition of the p259-271 specific proliferative response of TCBALB/c259-271 [9]: < 93 % inhibition

More lines, now with the values ahead:

proliferative response of PBL, stimulation index (SI) (stimulation index) [1]: 4.1
proliferative response of PBL, stimulation index (SI) (stimulation index) [2]: 6.3
Molecule: peripheral blood lymphocytes (PBL) of myasthenia gravis patients (cells without a defined receptor)

fold affinity against 207Ala-262Lys [5]: 10 fold
Molecule: {Biotin-Ahx}-VIVKLIPSTSSAVDTPYLDITYHFVAQRLPL [biotinylated dual analog 262Lys-207Ala]

% inhibition of the p259-271 induced proliferative response of PBL (three MG patients) [4]: 85.6 % inhibition
Molecule: VIVELIPDTSSAV [266Asp analog of p259-271]

Source: patent US6066621A, “Synthetic peptides for the treatment of myasthenia gravis” (Yeda Research and Development Co. Ltd., priority 1995, dated 2000)
